Assay results reported in patent US20230029453A1.

How the values were obtained:
Assay in all cases: UV peptide exchange; HLA class I ELISA
Conditions in all cases: remark: other sources report otherwise
HLA-B*08:01 (human) = target: HLA-B*08:01 (human)
HLA-B*07:02 (human) = target: HLA-B*07:02 (human)
HLA-A*24:02 (human) = target: HLA-A*24:02 (human)
HLA-A*03:01 (human) = target: HLA-A*03:01 (human)
HLA-A*02:01 (human) = target: HLA-A*02:01 (human)
HLA-A*01:01 (human) = target: HLA-A*01:01 (human)
HLA-B*27:05 (human) = target: HLA-B*27:05 (human)

Binder	exchange rate with Pos (HLA-B*08:01 (human)) [%]	exchange rate with Pos (HLA-B*07:02 (human)) [%]	exchange rate with Pos (HLA-A*24:02 (human)) [%]	exchange rate with Pos (HLA-A*03:01 (human)) [%]	exchange rate with Pos (HLA-A*02:01 (human)) [%]	exchange rate with Pos (HLA-A*01:01 (human)) [%]	further results
CPMSRLRLA (here or on the partner: biotinylated heavy chain) [P46 9-mer … (TP53 R213D frameshift)]	14.5	64.8	-0.4	10.3	14.4	2.4	–
LMAQRLLLR (here or on the partner: biotinylated heavy chain) [P97 9-mer … (FOXRED2-TXN2 fusion)]	2.7	7	0.1	39	4.6	2.5	–
YLRRQKRLK (here or on the partner: biotinylated heavy chain) [P60 9-mer … (FOXA1.p.F266L)]	10.2	6.1	0.9	36.6	7.9	3.1	–
QLIAMDSAI (here or on the partner: biotinylated heavy chain) [P22 9-mer … (SLC45A3-ELK4 fusion)]	3.9	8.3	0	4.8	46.9	4.4	Average % (HLA-B*08:01 (human)): 7.9%; Exch I (%) (HLA-B*08:01 (human)): 8%; Exch II (%) (HLA-B*08:01 (human)): 7.8%; Average % (HLA-B*07:02 (human)): 12%; Exch I (%) (HLA-B*07:02 (human)): 12.2%; Exch II (%) (HLA-B*07:02 (human)): 11.8%; Average % (HLA-A*24:02 (human)): 4.5%; Exch I (%) (HLA-A*24:02 (human)): 4.8%; Exch II (%) (HLA-A*24:02 (human)): 4.1%; Average % (HLA-B*27:05 (human)): 4.3%; Exch I (%) (HLA-B*27:05 (human)): 4.7%; Exch II (%) (HLA-B*27:05 (human)): 3.9%; Average % (HLA-A*02:01 (human)): 41.5%; Exch I (%) (HLA-A*02:01 (human)): 40%; Exch II (%) (HLA-A*02:01 (human)): 43.1%; Average % (HLA-A*01:01 (human)): 5%; Exch I (%) (HLA-A*01:01 (human)): 5%; Exch II (%) (HLA-A*01:01 (human)): 4.9%
FLFLLLPLS (here or on the partner: biotinylated heavy chain) [P87 9-mer … (AR-Intron)]	3.1	5	0.2	2.4	64	1.1	–
NPKASLLSL (modifications not checked)	–	–	–	–	–	–	Average % (HLA-A*01:01 (human)): 6.5%; Exch I (%) (HLA-A*01:01 (human)): 7.4%; Exch II (%) (HLA-A*01:01 (human)): 5.6%
IPVLTRWPL (here or on the partner: biotinylated heavy chain) [P19 9-mer … (TMEM222-LOC644061 fusion)]	14.5	91.3	0.1	4.1	8.2	5.2	–
RAVRRMNTF (here or on the partner: biotinylated heavy chain) [P17 9-mer … (MSMB-NOCA4 fusion)]	9	38.7	0.1	3.8	–	4.9	–
YCMAAPMGL (here or on the partner: biotinylated heavy chain) [P76 9-mer … (AR-V3)]	–	91.5	-0.5	6	85.9	0.1	–
CYLGRQKRF (here or on the partner: biotinylated heavy chain) [P61 9-mer … (FOXA1.p.R261G)]	3.6	–	90.3	–	5.8	1.7	–
LIYRRRLMK (modifications not checked)	–	–	–	–	–	–	Average % (HLA-B*07:02 (human)): 13.7%; Exch I (%) (HLA-B*07:02 (human)): 13%; Exch II (%) (HLA-B*07:02 (human)): 14.3%
YQFTFDLLI (here or on the partner: biotinylated heavy chain) [P48 9-mer … (AR.p.H875Y)]	–	12.8	0.1	4.4	99.3	4.3	–
RVGNCKHLK (here or on the partner: biotinylated heavy chain) [P82 9-mer … (AR-V7)]	1.4	12.9	-0.1	58.1	6.3	1.5	–
IVWWCPMSR (here or on the partner: biotinylated heavy chain) [P98 9-mer … (TP53 R213D frameshift)]	2.4	6.7	-0.1	51.1	7.9	2.5	–
LLERNSFEV (here or on the partner: biotinylated heavy chain) [P73 9-mer … (TP53 G266E)]	2.6	8.7	0.5	3.5	89.2	–	–
HVPKILSGK (here or on the partner: biotinylated heavy chain) [P58 9-mer … (AR Q903H)]	5.3	–	0.2	32.5	11.8	2.5	–
RAKCKFSIL (here or on the partner: biotinylated heavy chain) [P56 9-mer … (SPOP F102C)]	38	82.5	0.5	6.8	8.4	2.6	–
